From PMC9637899

B1: activated C1s–CCP1–CCP2–SP [human] / ElpB_(182–378) [B. burgdorferi] (parent)
chain 1: MPCPKEDTPNSVWEPAKAKYVFRDVVQITCLDGFEVVEGRVGATSFYSTCQSNGKWSNSKLKCQPVDCGIPESIENGKVEDPESTLFGSVIRYTCEEPYYYMENGGGGEYHCAGNGSWVNEVLGPELPKCVPVCGVPREPFEEKQRIIGGSDADIKNFPWQVFFDNPWAGGALINEYWVLTAAHVVEGNREPTMYVGSTSVQTSRLAKSKMLTPEHVFIHPGWKLLEVPEGRTNFDNDIALVRLKDPVKMGPTVSPICLPGTSSDYNLMDGDLGLISGWGRTEKRDRAVRLKAARLPVAPLRKCKEVKVEKPTADAEAYVFTPNMICAGGEKGMDSCKGDSGGAFAVQDPNDKTKFYAAGLVSWGPQCGTYGLYTRVKNYVDWIMKTMQENSTPRED
chain 2: QERKAKAEKEAKEKAERQKQEEQQKRKAEKEREEQRKEAEKRQVDNEIRTLTGKIDEINRNIDVIKEQTSVGAQGVIDRITGPVYDDFTDGNKAIYKTWGDLEDDNDEGLGKLLKELSDTRHNLRTKLNEGNKAYIIDTRSTEPQLKENVSVSEIKSDLDELKSKLEEVKEYLEDKDNFEEIKEYVAGSEDNYDEED

Variants of: B1
Experiment: SPR
Conditions: with ElpB_(182–378) [B. burgdorferi]; steady-state response at the highest analyte concentration plotted (about 5e-7 M on the x axis); ElpB182-378 immobilized, C1s construct injected; parent: 79; read off a plot

Variant | response [RU]
chain 1 K284A R285A R290A K292A | 7
chain 1 E35A D67A K284A R285A R290A K292A | 0
